Measured values: patent US20190033318A1

Key:
Assay in all cases: thermal shift assay, 1 mM peptide
[1] = biological target: GST-1β (GST-tagged HIF-1β 1-474, isoform 2, Δ77-91) (UniProt P27540)
[2] = biological target: 2α PASB (HIF-2α PASB domain, 240-350) (UniProt Q99814)
[3] = biological target: Trx-2α (thioredoxin-tagged HIF-2α 1-360, bHLH-PASA-PASB) (UniProt Q99814)
[4] = biological target: 1α PASB (HIF-1α PASB domain, 238-349) (UniProt Q16665)
1α PASB (HIF-1α PASB domain, 238-349), sequence (Q16665 238-349): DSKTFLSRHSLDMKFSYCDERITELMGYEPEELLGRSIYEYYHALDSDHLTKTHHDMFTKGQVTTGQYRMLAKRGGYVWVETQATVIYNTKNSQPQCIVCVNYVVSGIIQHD

2α PASB (HIF-2α PASB domain, 240-350), sequence (Q99814 240-350): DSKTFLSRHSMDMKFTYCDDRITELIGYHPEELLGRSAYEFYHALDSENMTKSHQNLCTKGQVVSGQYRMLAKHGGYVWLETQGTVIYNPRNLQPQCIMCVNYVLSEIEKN
Trx-2α (thioredoxin-tagged HIF-2α 1-360, bHLH-PASA-PASB), sequence (Q99814 1-360): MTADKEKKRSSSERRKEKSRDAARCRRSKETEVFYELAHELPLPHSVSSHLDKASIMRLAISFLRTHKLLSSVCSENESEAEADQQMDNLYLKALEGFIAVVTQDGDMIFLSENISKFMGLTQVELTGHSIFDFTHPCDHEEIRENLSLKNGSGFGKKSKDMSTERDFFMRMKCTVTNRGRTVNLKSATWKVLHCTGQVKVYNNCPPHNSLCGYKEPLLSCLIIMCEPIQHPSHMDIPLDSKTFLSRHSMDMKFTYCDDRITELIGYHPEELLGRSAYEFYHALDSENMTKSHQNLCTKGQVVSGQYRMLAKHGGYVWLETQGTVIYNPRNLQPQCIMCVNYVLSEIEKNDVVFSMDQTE

ΔTm [1] [° C.] | ΔTm [2] [° C.] | ΔTm [3] [° C.] | ΔTm [4] [° C.] | Binder
-0.5 |  |  |  | CRVIIF (cyclic peptide (cyclo-, first amino acid joined to the last)) [cyclo-CRVIIF (SEQ ID NO 4)]
 | -2.5 | -2 | -0.5 | SGWEMIQRR (cyclic peptide (first amino acid joined to the last)) [cyclo-… (SEQ ID NO 5)]
